Laboratory results reported in the DeepSol protein solubility set.

Assay: soluble on expression in E. coli; label from the status in PepcDB or PDB records

Row | Sequence | soluble on expression in E. coli
1 | MGSDKIHHHHHHMMELRYNPLTDEWVIVSAATQKRPVQPSKTECPICVGGLELPEEYDLVTFENRYPSLKKDPPPVNWKEKGPFRKEESRGVCEVVVYTSDHNTALPGMPLKQIEKLVEMWVDRTRDLSQHDFVKYIFIFENRGKEVGASLPHPHGQIYAFPFLPKRIEVKIGAMRKWYEEKRKCPICEVLESEGEERKVYETEHFLALVPFYARFPYEVHIYPKRHVSTLLEFSKEEKKEFAKVLKVVTAKYDKLFDQEFPYMMMFFQAPFNEEDVSHFFHFHVEFNPPKRDRDKLKWMASVETGTWAFINPVVPEEAARQLRETEVEI | not soluble
2 | MIVLALDVYEGERAIKIAKSVKDYISMIKVNWPLILGSGVDIIRRLKEETGVEIIADLKLADIPNTNRLIARKVFGAGADYVIVHTFVGRDSVMAVKELGEIIMVVEMSHPGALEFINPLTDRFIEVANEIEPFGVIAPGTRPERIGYIRDRLKEGIKILAPGIGAQGGKAKDAVKAGADYIIVGRAIYNAPNPREAAKAIYDEIRGV | soluble
3 | MSLNTTFTKEDGTEVVIPFNGSQNGHPENEEPEVEEAAEPSSSVETLCGATRGDIIVMKHTTKALTELIERLLHSDEFEVRRCSNGQIISQGRCNGTTPGNGIGGGGASSEELEKALKDRDAARAEADKLHANYATLFASFNTVREAANDIRGEYEDARDKLKLAAAEVDEWQAKFLAVKDNANSELERASVEYDDLLRSHDENTKGLRLRVKRQEIELSSKNDEIKVLTNRVSELSQICDQLLNDVDVSDGMSVISTDA | not soluble
4 | MTSNKQLINERDHAESALADMYFAATGDEPEWSNWFGFSDAVDAVVDRIADLEAKQPSPVVPEGLVKAVRFYEQVKRENPPVETEAWKDAIDWVLKESCQAVNIDTNGD | soluble
5 | MKKIIGLVGTNSEQSTNRQLLQFMQHYFAQEADIELVEIVDFPMFNKPEDKVLPEIVKTVAEKIEAADGVIISTPEYDHAVPASLMNALSWLSYGIFPFVDKPVMITGASYGTLGSSRAQAHLRQILDAPELKARIMPSSEFLLAHSLQAFDENNALKDSEQIDKLAGLFADFCVFIEITEQLKHAHAQNKKEAENFSWETI | not soluble
6 | GSEDINRNPLLPTKEDEKMDGVIYGAYLPNLEKSVIPIGTASESTEPVNRYQIGVNLAGDAWAGYMSPRDNKFNGSKNFTNYFMYENWVNYVYSFMVTDVYSPWMQIKRISQDEGTRNDEIYALAQIIKIAALHRTTDMFGPIPYSQVGKGSFKVAYDSQESVYRSFLKELEEAVQTLDDYSNKSKEVLPAFDIVYNGDVNKWMRFANSLMLRLAIRVRFADAGLAKEYAEKAVKHPAGLINSKELAAQMGKGAGLQMKNPLKVINEEYNDTRMGATIYSYLAGYNDARAAVYFVKNNGFKAVRCGIAKSGDAYNGFTRPNVHEDDPLYWMKASEVCFLKAEGALAGFDMGGSAGDFYNAGIRMSFSENGLDNSSAETYLKDSTRKPANYTDTSNGELSANAPSSITIRWENGATEEEKLERIITQKYLAIFPNGQEAWTEWRRTGYPRQIVVAENKTNSAVLIGNGYDLGGVRRLPYPRTEYEQNGENLHNAISQYLGGVDNAATKVWWDKKSK | soluble
7 | STTEVVMENVTAFWEEGFGELFEKAKQNNNNRKTSNGDDSLSFSNFSLLGTPVLKDINFKIERGQLLAVAGSTGAGKTSLLMMIMGELEPSEGKIKHSGRISFCSQNSWIMPGTIKENIIFGVSYDEYRYRSVIKACQLEEDISKFAEKDNIVLGEGGITLSGGQRARISLARAVYKDADLYLLDSPFGYLDVLTEKEIFESCVCKLMANKTRILVTSKMEHLKKADKILILHEGSSYFYGTFSELQNERPDFSSKLMGCDSFDQFSAERRNSILTETLHRFSLEGDAPVSENLYFQGDKDCEMKRTTLDSPLGKLELSGCEQGLHEIKLLGKGTSAADAVEVPAPAAVLGGPEPLMQATAWLNAYFHQPEAIEEFPVPALHHPVFQQESFTRQVLWKLLKVVKFGEVISYQQLAALAGNPAATAAVKTALSGNPVPILIPCHRVVSSSGAVGGYEGGLAVKEWLLAHEGHRLGKPGLG | soluble
8 | MNKKEIFKLAKGFRGRAKNCIRIARERVEKALQYSYRDRRNKKREMRGLWIERINAGSRQHGVNYGNFIHGLMKENIQLNRKVLSELSMHEPYSFKALVDVSRKSFPGNKNVVQASRKVDISSINA | soluble
9 | MAHHHHHHMVSVDTSTRRFLEMFCDFDAKRCKLCNETFLQWHIHANGIPHAGREGMLLELVRPYCGTPDELIEMWWQRLNSCAAFHRIPGLSHDNPHERKRRLLYLLKVLKDRGILVETFNVSDNQSTNSARSWEFERLEFVGDNVVKYVLNNIISCAFPPHEGGTKGKMTCFQFVMDGNDGLARGYDHLDLQQLASSPRVVSKFKSDIVETLFAELQMYLWSTQHDIGTCPLVFPFTKDIYTLRALVQHVLYELGIELFLYHIRHINGMLQRVMRENHLQFVKADSALKPRAGARTGSLGVSTRRGDWSDDDDDYDCPQSYGTPAVSAPTAALMKVRSQRTHVQGTGAALFFASTNYDNFKRVVPIGGLLPRPFARQDLSVIPNHMPHLRSDGAMTRRMRRVGNAGWSTLHATATALTTLESVADGLALSAETTPRVGSEPVRLSVPRLKDEELIPELI | not soluble
10 | ASCETTVTSGDTMTYSTRSISVPASCAEFTVNFEHKGHMPKTGMGHNWVLAKSADVGDVAKEGAHAGADNNFVTPGDKRVIAFTPIIGGGEKTSVKFKVSALSKDEAYTYFCSYPGHFSMMRGTLKLEE | soluble
11 | MGSDKIHHHHHHMTISAQCNLQKLAFATTLAVTIVLSQGRAIGQVKHGSPIELAKADVSTAVRQDMANEVRIVGSLTPIRRSTLTSRVSSTIIELPVQIGDVVNAGDLLVRFERGALESAVTGRKAEADALSAQTELAEAVLERNTRLGERGAASEATRLAALADVLDLRAQLRSKQAEVSDAERSLSHAEVRAEFGGVIAARSVEEGQTVPLNTQLMTIVELNRLEVDAGVPTSRIPLIRLKQSVELTVEGFPGRTFSGEVARISPTADAGSRAVRVFIAVDNEEGLLRGGMFTIGDLRVDDQKDVIALPAASIRHDADGFFVLKVEAGVLQRRPVGLGRSWSDRDLVQVSGVSEGDVIVTAPLPDLVVNTPVIIEGI | not soluble
12 | MKLIKTIDAVGQVLCHDITQIIPGEFKGRKFKKGHIVKEEDIPVLLSLGKDNLYVWEKSEGMVHENEGALFLKELTAGENLDFSEIKEGKIDFIAACDGLLKIDVDALFDLNCVGEIMMATLHNNFIVNKGLKVAGTRVIPLVIDEKKLEDAKKVVGNRKIVNVVPFKPKKVGIVTTGNEVFYSRIVDKFGPVIEEKVKGFGCEVIGQTICPDDKEIIKSAIKEFISQGAELICCTGGMSVDPDDVTPTAIKETGADLVTYGSPILPGAMFLLAYYGEVPIMGIPGCAMYHKTTVFDIVLSRVLIDEKLDKYDIARYGHGGLCMNCDVCTYPACNFAKI | soluble
13 | MSLKVEYFSDSSAVPHLHLENEDSYSVTDDLFIVADGVGSYEGSKDASRYAVNYLSKMAKEIQSKEQLVEEIIKLSEEIKSIGIISGRPLMSTTISVLKISTEKYITANVGDSPIVLLRSGKLYKLYIDDSERSSTGNRFALEQAFGWNHVIVHSFEGKLEKGDLFIICTDGVSDNLSDEYDLYSILRELDAQTIVRLALNKGIKPDDATIIKVYVTMAEGHHHHHH | soluble
14 | DIQMTQSPSTLSASIGDRVTITCRASEGIYHWLAWYQQKPGKAPKLLIYKASSLASGAPSRFSGSGSGTDFTLTISSLQPDDFATYYCQQYSNYPLTFGGGTKLEIKRTVAAPSVFIFPPSDEQLKSGTASVVCLLNNFYPREAKVQWKVDNALQSGNSQESVTEQDSKDSTYSLSSTLTLSKADYEKHKVYACEVTHQGLSSPVTKS | soluble
15 | MEAGFKRKVDYLDRPERSEVLSPEDFLQAMPIGKTASILDLGAGTGFLTIPAAKLVDNTVFALDLDAKMLELIESKAKEAGLANVETLEASMDDIPLEANSVDVVLASLVLHEADSLADVLREVSRVVKTGGYFASLEFDTKGTDLKGPPMEIQISAEKLKEELAGFGFEVVKNWQLDEGMYVSIAVKKLEHHHHHH | not soluble
16 | IEKNQIDMANGQELLISESLAVSQATTTFIDQLRILAPFGTDNTVPTFVFKEITPTQIRQIGADNAHLKFQMNQEGAQLDAIAFQMGPQADELAQGTADVAGQLSINEWNGRKKPQ | not soluble
17 | MAQENPLWMRHCAISPDGTTIAFTYKGDIFTVPVSGGKATQITTNPAFDTTPIWSPDSKQIAFASDRMGSMDVFIVSKDGGEPRRLTTFSGGETPVAFTDAGHILFTADIMPSTEDAGFPSNGQFQQIYQIPVSGGRPVMFSSMPMECISINKEGTILYQDKKGYEDYWRKHQKSPIARDIWMLRPGQTPRYEKQTTFIGEDREPVWAPDGKSFYYLSEENGTFNVYQRTPGSDTSKQVTHHKQHPVRFLEHHHHHH | not soluble
18 | MSLSPTKTRRILFLLPYVADLSVGDFSKGLNPVMQDKQIDVMMTTLDFLQNKTAKELINEFDGLIYYALDTEQHLDLLFELSLKEFPVVILDKKIYELPFPTVLSDNFQGGALAASYLIEQGHSKIAYLFGTQTHPQSVRQRYLGYLEALDKAGLTFHTSLDDKSATLDELLSYITKYEVTAFVCENDVVAIQTMNLLRQHGYHIPEDFSIIGFDDIQAAALVDPPLTTIAQDFEQLGKLAGDALVTWLETKDRPSDSKFPVSFIKRQSTKEGHHHHHH | soluble
19 | MGHHHHHHSHKDDTDPGQLKGLSAHTHVELPYYSKFILIAAYLASYNPARTDKRFFLKHHGKIKKTNFLKKHEKTSNHLLGPKPFPLDRLLAILYSIVDSRVAPTANIFSQITSLVTLQLLTLVGHDDQLDGPKYKCTVSLDFIRAIARTVNFDIIKYLYDFL | not soluble
20 | MTIEGGEQEVNVSSGGAWQSSIHCDWMTLSPSSGGIGITKVRIKVKKNTSGLPRNGRIAIISGKEEKGITVMQSSIEGEEDYLRLLNLTIDGVTTAVDYVNNSYYLPIDMDAVQPAKVKVEFGGIGVDFIKIGDKKIKSGENIALSLNPGQNIEMEAGNNTIDKIRSCRLIVTGVPVIEISAPEGIEDENKRPCDIVLTDPKRRTNNSVLRFESYAGIEFRGAGALRYAKKSFSFKLKNRQTNENQDAKLLGLREDQSWILDAMWLDCSKMRNRVCFDLWNDFNTLYYSNTEPEAVNATHGYPVEMILDGAYHGLYILSDRIDRKQLKMKKKGGYLYKGKEWTDECKLQGINTPYSNSKQAWQGFESDYPDEVGEIEFKYLSDLIQFFAAASKEEFAAQYEERLDVSSLIDYFIFINLLSAYDNTGRNVFWGIYNVNLTLLPKFIIQPWDLDGTLGRTWDAIKLDPEKGLGFDNGLILRNDAGSKYFRPFERIMNENPNNIKRRIYERLMAVKDNVLSPANLASKVDYYKRQIVESGALERDRQRWTGYSMYGYANPEEEAEYIKSWYIARLKYLETIFNNF | not soluble
21 | MAHHHHHHMSEGGRRRKVYGFKAERQAFFSKHVRQTFLEEGRKKKDEERARMEAYRKLCEEEGIVSKRLEDYDRTRKAAKEHLSSTLEQIDYDQSLTNNEKKKRKYNLKRKFAATTVNDLIDKQQKHYSAVSGMEEVQRRQQQEREEKQKARQEREREKQSRVQARKSRNALFAKRTKKGQPAMSSRVESLLQKISWQ | not soluble
